This passage reports EC50 results from patent US20230030950A1 (UNIVERSITY OF QUEENSLAND, published 2023).

This experiment deals with T1, Aβ1-42 fibrils (UniProt P05067 672-713).
T1 construct: domain: Aβ1-42; Aggregated (fibrillar) form coated on the ELISA plate; also called fibrillar amyloid-β42; fibrillar Aβ42
Description: direct-binding ELISA; plate coated with Aβ1-42 fibrils, serial dilutions of antibody, anti-mouse HRP detection. As to the method: A131-42 fibrils were generated by incubating 0.1 mM A131-42 (JPT Peptide Technologies, Germany) in 10 mM HCl for 3 d at 37° C. A MaxiSorp ELISA plate was coated with […] Aβ₁₋₄₂ fibrils in 0.1M sodium bicarbonate buffer and then blocked with 1% bovine serum albumin.

T1 sequence (P05067 672-713 limits assumed): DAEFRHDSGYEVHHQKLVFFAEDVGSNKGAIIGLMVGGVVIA

B1: 6E10 antibody (antibody, V domains shown)
VH: EVQLQQSGAELVKPGASVKLCTASGFNIKDTYIHWVKQRPEQGLEWIGRFDPVNVNTRYDSRFRGKATITSDASSNTAYLHLNSLTSEDTAVYYCSRSYYNGRRRFTYWGQGTLVTVSA
VL: DIVMTQSPSSLTVTAGEKVALTCKASQSLLSSGNQKNYLTWYQQKPGQPPKLLIYWASIRESGVPDRFTGSGSGTFFTLTISSVQAEDLAVYYCQNDYNYPFTFGSGTKLEIK
On to B1, for which the EC50 (as a rule, the concentration that produces a half-maximal response) amounted to 1.18 nM. In other words, the single-digit nanomolar range.
